Source: article PMC10803816, “EGFR core fucosylation, induced by hepatitis C virus, promotes TRIM40-mediated-RIG-I ubiquitination and suppresses interferon-I antiviral defenses”

Columns and labels:
[1] = immunoblot of total EGFR; settings: glycan lost; control: wild-type Flag-EGFR
[2] = RT-qPCR of HCV RNA, 48 h infection; settings: glycan lost; control: EGFR KO Huh7 complemented with wild-type EGFR
[3] = confocal EGFR/Lamp1 colocalisation after EGF, Huh7; settings: glycan lost; control: wild-type EGFR
[4] = target: T1, His6-SNAIL (UniProt O95863 1-264); assay: EMSA; increasing SNAIL; Beyotime EMSA kit GS005 per manufacturer; 8% native PAGE; buffer, salt, pH and temperature not stated; settings: protein: recombinant; tags: His6 (pET28a); label: 5' FAM; blunt
[5] = target: T1, His6-SNAIL; assay: competition; 10-fold excess (300 nM) unlabeled probe abolished binding to WT-FAM probe; Beyotime EMSA kit GS005 per manufacturer; 8% native PAGE; buffer, salt, pH and temperature not stated; settings: protein: recombinant; tags: His6 (pET28a); blunt
[6] = target: T1, His6-SNAIL; assay: EMSA; text: SNAIL lost ability to bind mutant probe; legend and Methods leave open whether labeled or competitor; Beyotime EMSA kit GS005 per manufacturer; 8% native PAGE; buffer, salt, pH and temperature not stated; settings: protein: recombinant; tags: His6 (pET28a); label: 5' FAM per Methods (legend also mentions mutant probe added at 300 nM); blunt

T1 sequence (O95863 whole entry): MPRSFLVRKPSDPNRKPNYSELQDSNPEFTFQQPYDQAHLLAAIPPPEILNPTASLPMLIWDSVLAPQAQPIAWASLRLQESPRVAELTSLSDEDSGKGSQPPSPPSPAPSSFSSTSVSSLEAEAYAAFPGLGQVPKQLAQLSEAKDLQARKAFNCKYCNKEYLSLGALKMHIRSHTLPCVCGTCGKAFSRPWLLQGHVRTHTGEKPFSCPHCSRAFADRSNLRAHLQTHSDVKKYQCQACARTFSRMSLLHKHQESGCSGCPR

Epidermal growth factor receptor (EGFR, ErbB1, HER1): N352Q
expression_or_secretion [1]: no change
other: viral replication [2]: decreases
localisation_or_trafficking [3]: decreases

B1: FUT8 promoter WT probe (-295 to -260) (dsDNA)
DNA 1: TACACTTCCTGACGTGGCAGGTGAGAGAGTGTGGGT
DNA 2: ACCCACACTCTCTCACCTGCCACGTCAGGAAGTGTA
binding result [4]: binds

B2: FUT8 promoter WT unlabeled competitor (dsDNA)
DNA 1: B1 DNA 1
DNA 2: B1 DNA 2
binding result [5]: binds

B3: FUT8 promoter Mut probe (dsDNA)
DNA 1: TACACTTCCTGACGTGAGAGGGGTCAGAGTGTGGGT
DNA 2: ACCCACACTCTGACCCCTCTCACGTCAGGAAGTGTA
binding result [6]: no binding
